Assay results from publication PMC3170320, “Minimal Antizyme Peptide Fully Functioning in the Binding and Inhibition of Ornithine Decarboxylase and Antizyme Inhibitor” (PLoS ONE, 2011).

Target: human ornithine decarboxylase, wild type (human) (UniProt P11926)
Sequence (P11926 whole entry): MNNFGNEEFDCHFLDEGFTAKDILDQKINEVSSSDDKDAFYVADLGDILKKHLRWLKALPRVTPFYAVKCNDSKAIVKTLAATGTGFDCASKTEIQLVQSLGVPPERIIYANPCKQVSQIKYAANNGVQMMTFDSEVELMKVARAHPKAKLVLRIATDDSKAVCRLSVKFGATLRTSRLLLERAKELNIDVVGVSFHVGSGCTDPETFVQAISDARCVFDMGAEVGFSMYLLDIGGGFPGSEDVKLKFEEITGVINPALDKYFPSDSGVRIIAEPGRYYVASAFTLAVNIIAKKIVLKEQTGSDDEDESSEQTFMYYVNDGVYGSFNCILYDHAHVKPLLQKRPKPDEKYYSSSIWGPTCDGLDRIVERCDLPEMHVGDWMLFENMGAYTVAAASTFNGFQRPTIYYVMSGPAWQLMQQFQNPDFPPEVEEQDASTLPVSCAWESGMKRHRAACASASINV

Chain of human antizyme peptide AZ_126-228 (P54368 126-228): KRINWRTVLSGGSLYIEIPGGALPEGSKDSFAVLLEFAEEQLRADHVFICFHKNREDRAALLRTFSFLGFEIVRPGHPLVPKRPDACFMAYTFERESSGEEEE
Chain of human antizyme peptide AZ_87-228 (P54368 87-228): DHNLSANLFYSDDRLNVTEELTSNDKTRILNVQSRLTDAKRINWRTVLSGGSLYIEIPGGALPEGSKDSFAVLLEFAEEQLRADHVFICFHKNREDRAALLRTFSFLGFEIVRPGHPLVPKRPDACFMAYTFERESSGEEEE
Chain of human antizyme peptide AZ_100-124 (P54368 100-124): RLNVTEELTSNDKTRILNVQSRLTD
Chain of human antizyme peptide AZ_114-228 (P54368 114-228): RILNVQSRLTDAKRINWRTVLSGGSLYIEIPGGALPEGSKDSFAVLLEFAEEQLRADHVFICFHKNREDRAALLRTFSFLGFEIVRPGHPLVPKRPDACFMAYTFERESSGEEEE
Chain of human antizyme peptide AZ_100-135 (P54368 100-135): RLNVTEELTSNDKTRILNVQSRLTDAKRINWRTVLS
Chain of human antizyme peptide AZ_95-169 (P54368 95-169): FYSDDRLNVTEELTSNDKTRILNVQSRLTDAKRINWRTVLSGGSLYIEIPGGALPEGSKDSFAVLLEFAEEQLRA
Chain of human antizyme peptide AZ_106-228 (P54368 106-228): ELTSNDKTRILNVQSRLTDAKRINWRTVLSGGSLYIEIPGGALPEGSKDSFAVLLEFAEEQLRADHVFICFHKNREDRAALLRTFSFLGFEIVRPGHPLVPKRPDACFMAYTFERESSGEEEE

| Substance | IC50 of inhibition of ODC enzyme activity (ODC 0.19 µM), without AZI |
| --- | --- |
| human antizyme peptide AZ_87-228 (from UniProt P54368 87-228) (domain or fragment) | 170 nM |
| human antizyme peptide AZ_95-169 (from UniProt P54368 95-169) (domain or fragment) | 370 nM |
| human antizyme peptide AZ_100-124 (from UniProt P54368 100-124) (domain or fragment) | 820 nM |
| human antizyme peptide AZ_100-135 (from UniProt P54368 100-135) (domain or fragment) | 860 nM |
| human antizyme peptide AZ_106-228 (from UniProt P54368 106-228) (domain or fragment) | 370 nM |
| human antizyme peptide AZ_114-228 (from UniProt P54368 114-228) (domain or fragment) | 970 nM |
| human antizyme peptide AZ_126-228 (from UniProt P54368 126-228) (domain or fragment) | 1190 nM |
